Tests used:
[1] = tested on: pulp cells; settings: reported in Non Patent Literature 1; cited from earlier work
[2] = tested on: exposed pulp; settings: rat in vivo, reported in Non Patent Literature 1; cited from earlier work
[3] = tested on: exposed pulp of rat maxillary first molars; experiment: Direct pulp capping experiment using S100-A7 and S100-A7 reacted with MMP20; assay type: in vivo; settings: rat molar, gelatin sponge with 20 μl of 1 μg/ml in PBS, 4 weeks after pulp capping, n=3
Method: Eight-week-old male Wistar rats were injected intraperitoneally with pentobarbital sodium (SomnoPentyl (Trade Mark), Kyoritsu Seiyaku Corporation, Tokyo) (30 mg/kg) as general anesthesia, and carprofen (Rimadyl®, Pfizer, USA) (3 mg/kg) was administered for pain relief. The tooth to be treated was isolated by rubber dam dry field technique, and a surface and surrounding tissue of the tooth were cleaned with an alcohol-soaked cotton ball, and then a cavity was formed using the following method based on the report by Komichi et al. [Non Patent Literature 1]. […] Maxillas, including the test teeth, were then resected and soft tissues were removed, and evaluated by the following methods. […]
Image analysis using the micro-CT (R-mCT2™M, Rigaku Corporation, Tokyo) was performed for quantitative evaluation of the formed tertiary dentin in the samples after the direct pulp capping. […] A CT value equivalent to that of the primary dentin was set as a threshold for extracting the tertiary dentin, and the area of the newly formed tertiary dentin was calculated from a binarized image. The area of the newly formed tertiary dentin was measured in each section, and the volume of the newly formed tertiary dentin was calculated by summing all of the measurements. […]

B1: S100-A7: Protein S100-A7 (PROSPEC, Israel), human-derived Protein S100 (protein, UniProt P31151 2-101, looked up)
Protein S100-A7: SNTQAERSIIGMIDMFHKYTRRDDKIEKPSLLTMMKENFPNFLSACDKKGTNYLADVFEKKDKNEDKKIDFSEFLSLLGDIATDYHKQSHGAAPCSGGSQ
In the case of B1, the “effect on pulp cells in vitro” value [1] is listed as “activates proliferation, differentiation, and mineralization abilities”, the “tertiary dentin induction in the direct pulp capping experiment” value [2] is listed as “completely covers the surface of the exposed pulp” and the “tertiary dentin formation (micro-CT analysis)” value [3] is listed as “completely covering the exposed region of pulp”.

Reference: US20250084126A1, “PEPTIDE AND COMPOSITION” (OSAKA UNIVERSITY, priority 2021, published 2025)
